Assays:
Experiment in all cases: SEC
[1] = target: SARS-CoV-2 Nsp15 V128F (SARS-CoV-2)
[2] = target: SARS-CoV-2 Nsp15 K13R (SARS-CoV-2)
[3] = target: SARS-CoV-2 Nsp15 K260R (SARS-CoV-2)
[4] = target: SARS-CoV-2 Nsp15 H235Y (SARS-CoV-2)
[5] = target: SARS-CoV-2 Nsp15 G18R (SARS-CoV-2)
[6] = target: SARS-CoV-2 Nsp15 D220Y (SARS-CoV-2)
[7] = target: SARS-CoV-2 Nsp15 L163F (SARS-CoV-2)
[8] = target: SARS-CoV-2 Nsp15 P206S (SARS-CoV-2)
[9] = target: SARS-CoV-2 Nsp15 G18E (SARS-CoV-2)
[10] = target: SARS-CoV-2 Nsp15 K290N (SARS-CoV-2)
[11] = target: SARS-CoV-2 Nsp15 R207S (SARS-CoV-2)
[12] = target: SARS-CoV-2 Nsp15 T115A (SARS-CoV-2)
[13] = target: SARS-CoV-2 Nsp15 W333C (SARS-CoV-2)
[14] = target: SARS-CoV-2 Nsp15 D133Y (SARS-CoV-2)
[15] = target: SARS-CoV-2 Nsp15 A93S (SARS-CoV-2)
[16] = target: SARS-CoV-2 Nsp15 K13N (SARS-CoV-2)
[17] = target: SARS-CoV-2 Nsp15 T34I (SARS-CoV-2)

SARS-CoV-2 Nsp15 V128F (enzyme)
Hex/Mono Ratio [1]: 0.5

SARS-CoV-2 Nsp15 K13R (enzyme)
Hex/Mono Ratio [2]: 1.18

SARS-CoV-2 Nsp15 K260R (enzyme)
Hex/Mono Ratio [3]: 1.8

SARS-CoV-2 Nsp15 H235Y (enzyme)
Hex/Mono Ratio [4]: 1.61

SARS-CoV-2 Nsp15 G18R (enzyme)
Hex/Mono Ratio [5]: 0.88

SARS-CoV-2 Nsp15 D220Y (enzyme)
Hex/Mono Ratio [6]: 0.63

SARS-CoV-2 Nsp15 L163F (enzyme)
Hex/Mono Ratio [7]: 0.23

SARS-CoV-2 Nsp15 P206S (enzyme)
Hex/Mono Ratio [8]: 2.49

SARS-CoV-2 Nsp15 G18E (enzyme)
Hex/Mono Ratio [9]: 0.56

SARS-CoV-2 Nsp15 K290N (enzyme)
Hex/Mono Ratio [10]: 2.12

SARS-CoV-2 Nsp15 R207S (enzyme)
Hex/Mono Ratio [11]: 0.14

SARS-CoV-2 Nsp15 T115A (enzyme)
Hex/Mono Ratio [12]: 0.55

SARS-CoV-2 Nsp15 W333C (enzyme)
Hex/Mono Ratio [13]: 0.77

SARS-CoV-2 Nsp15 D133Y (enzyme)
Hex/Mono Ratio [14]: 0.48

SARS-CoV-2 Nsp15 A93S (enzyme)
Hex/Mono Ratio [15]: 0.49

SARS-CoV-2 Nsp15 K13N (enzyme)
Hex/Mono Ratio [16]: 0.63

SARS-CoV-2 Nsp15 T34I (enzyme)
Hex/Mono Ratio [17]: 1.01

Source: paper doi:10.1101/2022.05.10.491349
